From article PMC6047364, “A Novel PLP-Dependent Alanine/Serine Racemase From the Hyperthermophilic Archaeon Pyrococcus horikoshii OT-3” (Frontiers in Microbiology, 2018)

Experiments:
[1] = target: T1, PH0782; Ala/Ser racemase (ASR) (Pyrococcus horikoshii, UniProt O58478); experiment: apo-enzyme reactivation, racemase activity; assay type: biochemical; conditions: apo-enzyme prepared at 80°C for 18 h in assay mixture with L-Ala; covalent (Schiff base, K291 suggested)
T1 construct: full-length, pET11a (NdeI/BglII), no tag described, E. coli BL21 (DE3), purified; hexamer about 300 kDa; fold type I PLP enzyme

[2] = target: T2, PH1501 (Pyrococcus horikoshii, UniProt O59170); experiment: UPLC detection of D-amino acid; assay type: biochemical; conditions: partially purified (heat-treated) enzyme; 100 mM HEPES pH 7.0, 10 mM L-amino acid, 0.04 mM PLP, 80°C, 60 min; slight peak
T2 construct: full-length, pET11a (NdeI/BamHI), no tag described, E. coli BL21 (DE3), partially purified by heat treatment at 90°C; about 50 kDa on SDS-PAGE
T2 sequence (O59170 1-438): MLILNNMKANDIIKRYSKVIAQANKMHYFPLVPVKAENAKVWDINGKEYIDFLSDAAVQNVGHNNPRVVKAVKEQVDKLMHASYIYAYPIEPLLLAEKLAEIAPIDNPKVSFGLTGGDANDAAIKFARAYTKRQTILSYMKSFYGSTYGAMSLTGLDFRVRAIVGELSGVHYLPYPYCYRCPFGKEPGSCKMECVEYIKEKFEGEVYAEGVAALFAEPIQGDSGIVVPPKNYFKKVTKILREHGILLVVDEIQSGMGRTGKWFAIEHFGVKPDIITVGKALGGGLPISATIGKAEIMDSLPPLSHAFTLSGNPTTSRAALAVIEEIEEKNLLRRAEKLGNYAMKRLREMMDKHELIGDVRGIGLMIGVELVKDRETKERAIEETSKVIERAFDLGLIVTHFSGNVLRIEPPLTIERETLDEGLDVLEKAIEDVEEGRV

[3] = substrate: N[C@@H](CO)C(=O)O; experiment: purified protein; conditions: 100 mM HEPES pH 7.0, 0.04 mM PLP, 80°C, racemization to D-Ser, apparent
[4] = substrate: C[C@H](N)C(=O)O; experiment: purified protein; conditions: 100 mM HEPES pH 7.0, 0.04 mM PLP, 80°C, racemization to D-Ala, apparent
[5] = substrate: C[C@@H](N)C(=O)O; experiment: purified protein; conditions: 100 mM HEPES pH 7.0, 0.04 mM PLP, 80°C, racemization to L-Ala, apparent
[6] = substrate: N[C@H](CO)C(=O)O; experiment: purified protein; conditions: 100 mM HEPES pH 7.0, 0.04 mM PLP, 80°C, racemization to L-Ser, apparent
[7] = target: the molecule itself; experiment: SEC; gel filtration on HiLoad 26/60 Superdex 200 with molecular mass standards (thyroglobulin, gamma-globulin, ovalbumin, myoglobin); native mass about 300 kDa against a subunit of 50.5 kDa (calculated)

Molecule: Cc1ncc(COP(=O)(O)O)c(C=O)c1O [pyridoxal 5′-phosphate]
- apo-enzyme reactivation, racemase activity [1]: apo-enzyme exhibited no activity in the absence of PLP and recovered its activity by addition

Molecule: CSCC[C@H](N)C(=O)O [Met]
- UPLC detection of D-amino acid [2]: Slight peaks for the D-forms of Met, Phe, and Leu were detected

Molecule: N[C@@H](Cc1ccccc1)C(=O)O [Phe]
- UPLC detection of D-amino acid [2]: Slight peaks for the D-forms of Met, Phe, and Leu were detected

B1: PH0782; Ala/Ser racemase (ASR) (Pyrococcus horikoshii OT3) (protein)
chain: MEYPKIVVKPPGPRAKELIEREKKVLSTGIGVKLFPLVPKRGFGPFIEDVDGNVFIDFLAGAAAASTGYAHPKLVKAVKEQVELIQHSMIGYTHSERAIRVAEKLVEISPIENSKVIFGLSGSDAVDMAIKVSKFSTRRPWILAFIGAYHGQTLGATSVASFQVSQKRGYSPLMPNVFWIPYPNPFRNIWGINGYEEPDELINRVLDYLEYYVFSHVVPPDEVAALFAEPIQGDAGIVVPPENFFKELKKLLEEYGILLVMDEVQTGIGRTGKWFASEWFNVKPDMIIFGKGVASGMGLSGVIGRKEIMDITSGSALLTPAANPVISAAAEATLEIIEEENLLKNALEVGEFIMGRLKEIKERFEIIGDVRGKGLMIGVEIVKENGRPDPEMTGKICWRAFELGLILPSYGMFGNVIRITPPLVLTKEVAEKALEIIERAIKDTLTGKVERKVVTWH
- Km [3]: 4.5 ± 0.32 mM
- Vmax [3]: 31.4 µmol/min/mg
- kcat/Km [3]: 5870 M⁻¹ s⁻¹
- Km [4]: 3.3 ± 0.22 mM
- Vmax [4]: 28.2 µmol/min/mg
- kcat/Km [4]: 7190 M⁻¹ s⁻¹
- Km [5]: 5.5 ± 0.59 mM
- Vmax [5]: 49.5 µmol/min/mg
- kcat/Km [5]: 7580 M⁻¹ s⁻¹
- Km [6]: 5.9 ± 0.40 mM
- Vmax [6]: 41.2 µmol/min/mg
- kcat/Km [6]: 5880 M⁻¹ s⁻¹

B2: Ala/Ser racemase (ASR), the protein encoded by PH0782, from Pyrococcus horikoshii OT-3 (enzyme, UniProt O58478 1-474, looked up)
chain: MPFLPFSYYPFSLEVILMEYPKIVVKPPGPRAKELIEREKKVLSTGIGVKLFPLVPKRGFGPFIEDVDGNVFIDFLAGAAAASTGYAHPKLVKAVKEQVELIQHSMIGYTHSERAIRVAEKLVEISPIENSKVIFGLSGSDAVDMAIKVSKFSTRRPWILAFIGAYHGQTLGATSVASFQVSQKRGYSPLMPNVFWIPYPNPFRNIWGINGYEEPDELINRVLDYLEYYVFSHVVPPDEVAALFAEPIQGDAGIVVPPENFFKELKKLLEEYGILLVMDEVQTGIGRTGKWFASEWFNVKPDMIIFGKGVASGMGLSGVIGRKEIMDITSGSALLTPAANPVISAAAEATLEIIEEENLLKNALEVGEFIMGRLKEIKERFEIIGDVRGKGLMIGVEIVKENGRPDPEMTGKICWRAFELGLILPSYGMFGNVIRITPPLVLTKEVAEKALEIIERAIKDTLTGKVERKVVTWH
notes: Ala/Ser racemase encoded by ORF PH0782 of Pyrococcus horikoshii OT-3 (annotated as a putative GABA aminotransferase); amplified from genomic DNA with primers from the initiation codon to the termination codon; calculated subunit mass 50.5 kDa; PLP-dependent enzyme; also called BAR homolog; source: E. coli BL21 (DE3), pET11a/PH0782, purified (heat treatment, butyl-Toyopearl, DEAE-cellurofine)
- stoichiometry N [7]: 6
